Measured values published in paper PMC12828031.

How the values were obtained:
EGFP-vinculin = EGFP-vinculin (UniProt P18206); assay: FRET or BRET; multiphoton TCSPC-FLIM of the donor on vinculin (EGFP or mTFP1) with mScarlet-I on RIAM as acceptor; transiently transfected MEF Vinc-/- fixed in 4% PFA; also with the ROCK inhibitor H1152 (no change)
mTFP1-vinculin = mTFP1-vinculin (UniProt P18206); assay: as above

| FRET efficiency (EGFP-vinculin) [%] | FRET efficiency (mTFP1-vinculin) [%] | Substance |
| --- | --- | --- |
| 13.5 |  | RIAM-mScarlet (RIAM C-terminally tagged with mScarlet-I) (from UniProt Q7Z5R6 1-666) (natural protein) |
| 16.4 | 20 | mScarlet-RIAM (RIAM N-terminally tagged with mScarlet-I) (from UniProt Q7Z5R6 1-666) (natural protein) |
